Source: ChEMBL document CHEMBL3864159, “Variation of the aryl substituent on the piperazine ring within the 4-(piperazin-1-yl)-2,6-di(pyrrolidin-1-yl)pyrimidine scaffold unveils potent, non-competitive inhibitors of the inflammatory caspases” (Bioorg Med Chem Lett, 2016)

Key:
[1] = compound: c1ccc(CCN2CCN(c3cc(N4CCCC4)nc(N4CCCC4)n3)CC2)cc1; assay: (§1) Non-competitive inhibition of human recombinant N-terminal His-tagged DTT-activated caspase-1 expressed in Escherichia coli assessed as enzyme Vmax at 500 nM using Ac-WEHD-AMC as substrate preincubated for 30 mins followed by substrate addition by Michaelis-Menten plot analysis (reference value: 13162 +/- 1446 RFU/min)
[2] = compound: c1ccc(CCN2CCN(c3cc(N4CCCC4)nc(N4CCCC4)n3)CC2)cc1; assay: as §1, with “Km” for “Vmax”, “8.18” for “13162”, “2.9 uM)” for “1446 RFU/min)”
[3] = compound: c1ccc(CCN2CCN(c3cc(N4CCCC4)nc(N4CCCC4)n3)CC2)cc1; assay: as §1, with “Km” for “Vmax”, “50” for “500”, “8.18” for “13162”, “2.9 uM)” for “1446 RFU/min)”
[4] = compound: c1ccc(CCN2CCN(c3cc(N4CCCC4)nc(N4CCCC4)n3)CC2)cc1; assay: as §1, with “50” for “500”

B1: Caspase-1 (Homo sapiens), P29466 (protein)
chain: MADKVLKEKRKLFIRSMGEGTINGLLDELLQTRVLNKEEMEKVKRENATVMDKTRALIDSVIPKGAQACQICITYICEEDSYLAGTLGLSADQTSGNYLNMQDSQGVLSSFPAPQAVQDNPAMPTSSGSEGNVKLCSLEEAQRIWKQKSAEIYPIMDKSSRTRLALIICNEEFDSIPRRTGAEVDITGMTMLLQNLGYSVDVKKNLTASDMTTELEAFAHRPEHKTSDSTFLVFMSHGIREGICGKKHSEQVPDILQLNAIFNMLNTKNCPSLKDKPKVIIIQACRGDSPGVVWFKDSVGVSGNLSLPTTEEFEDDAIKKAHIEKDFIAFCSSTPDNVSWRHPTMGSVFIGRLIEHMQEYACSCDVEEIFRKVRFSFEQPDGRAQMPTTERVTLTRCFYLFPGH
Which results are given for B1?
Vmax [1]: 2840 RFU/min; Km [2]: 5.75 µM; Km [3]: 5.76 µM; Vmax [4]: 4440 RFU/min
